For 34 variants, self-cleavage results are on record in the RNAGym collection of RNA variant scans (doi:10.1093/nar/gkz1192).

B1: CPEB3 Ribozyme (parent)
chain: UAACAGGGGGCCACAGCAGAAGCGUUCACGUCGCAGCCCCUGUCAGAUUCUGGUGAAUCUGCGAAUUCUGCUGUAUAUCUC

The data set covers variants of B1. Description: self-cleavage, relative activity (ratio to wild type); higher = more cleavage; in vitro, sequencing. An outline of the steps: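 Relative activity compares each variant's cleaved/total read fraction with that of the unmutated ribozyme. To get these fractions, barcoded CPEB3 ribozyme libraries from rounds of error-prone PCR were transcribed with T7 RNA polymerase for 5 hours at 37°C and then given 15 min of DNase I treatment before EDTA was added. The RNAs were reverse transcribed with template switching and sequenced on Illumina, and DNA sequencing linked barcodes to variants. A minimum of 5 reads applied, and three batches were averaged.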
Turning to UAACAGGGGGCCACAGCAGAAUCGUUCACGUCGCAGCCCCUGUCAGAUUCUGGUGGAUCUGCGAAUUCUGCUGUAUAUCUC [G22U A56G], the self-cleavage is 0.2.
In the case of UAACAGGGGGCCACAGCAGAAGCGUUCACGUCGCAGCACCUGUCAGAUUCUGGUGAAUCUGCGAAUUCUGCUGUAUAUCUC [C38A] it was 0.3.
In the case of UAACAGUGGGCCACAGCAGAAGCGUUCACGUCGCAGCCCCUGUCAGAUUCUGGUGAAUCCGCGAAUUCUGCUGUAUAUCUC [G7U U60C] it was 0.1; in that of UAACAGGGGGCCACAGCAGAAGCGUUCACGUCGCAGCCCCUGUCAGAUUCUGGCGAAUCUGCGAAUUCUGCUCUAUAUCUC [U54C G73C], 1.33; in that of UGACAGGGGGCCACAGCAGAGGCGUUCACGUCGCAGCCCCUGUCAGAUUCUGGUGAAUCUGCGAAUUCUGCUGUAUAUCUC [A2G A21G], 0.42.
UAACAGGGGGCCACAGCAGAAGCGUUCACGUCGCAGCCCCUGUCAGAUUCUGGUGAAUCUGCGAGUGCUGCUGUAUAUCUC [A65G U67G]: the self-cleavage came to 0.16.
In the case of UAACAGGGGGCCACAGCAGAAGCGUUCACGUCGCAGCCCCUGUCAGAAUCUGGUGAAGCUGCGAAUUCUGCUGUAUAUCUC [U48A U58G] it was 0.18; in that of UAACAGGGGGCCACAGCAGAAGCGUUCACGUCGCAGCCCCUGUCAGAUUCUGGUGAAUCUGCGAACUCUGUUGUAUAUCUC [U66C C71U], 0.43; in that of UAACAGGGGGCCACAGCAGAAGCGUUCACGUCGCAGCCCCUGUGAGAUUCUGGUGAAUCUGCGAAUUCUGCUGUAUAUCCC [C44G U80C], 0.78.
In the case of UAACAGGGGGCCACAGCAGAAGCGUUCACGUCGCAGCCCCUGUGAGAUUCUGGUGAAUCUGCGAAUUCUGCUGUAUAUCAC [C44G U80A] it was 0.52; in that of UAACAGGGGGCCACAGCAGAAGCGUUCACGUCGCAGCCCCUGUCAGAUUCUGGUGAAUCUGCGAAUUCUGCGGUAUAACUC [U72G U78A], 1.13; in that of UAACAGGGGGCCACAGCAGAAGCGUUCACGUCGCAGCCCCUGUCAGAUUCUGGUGAAUCUGCGAAUACCGCUGUAUAUCUC [U67A U69C], 0.4.
In the case of UAACAGGGGGCUACAGCAGAAGCGUUCACGUCGCAGCCCCUGUCGGAUUCUGGUGAAUCUGCGAAUUCUGCUGUAUAUCUC [C12U A45G] it was 1.25; in that of UAACAGGGGGCCACAGCAGAAGCGUUCACGUCGCAGCCCCUGUCAGAUUCUGGUGAUUCUGCGAAUUCUGCUGUUUAUCUC [A57U A75U], 1.08.
UAACAGGGGGCCACAGCAGAAGCGUUCUCGUCGCAGCCCGUGUCAGAUUCUGGUGAAUCUGCGAAUUCUGCUGUAUAUCUC [A28U C40G]: the self-cleavage was determined as 0.19.
In the case of UAACGGGGGGCCACAGCAGAAGCGUUCACGUCGCAGCCUCUGUCAGAUUCUGGUGAAUCUGCGAAUUCUGCUGUAUAUCUC [A5G C39U] it was 0.67.
In the case of UAACAGGGGGCCACAGCAGAAGCGUUCACGUCGCAGCCCCCGUCAGAUUCUGGUGAAUCUGCGAAUUCUGCUUUAUAUCUC [U41C G73U] it was 1.28; in that of UAACAGGGGGCCACAGCAGAAGCGUUUACGUCGCAGCCCCUGUCAGUUUCUGGUGAAUCUGCGAAUUCUGCUGUAUAUCUC [C27U A47U], 0.44.
In the case of UAACAGGGGGCCACAGCAGAUGUGUUCACGUCGCAGCCCCUGUCAGAUUCUGGUGAAUCUGCGAAUUCUGCUGUAUAUCUC [A21U C23U] it was 0.24.
Take UAACAGGGGGCCACAGCAGAAGCGUUCACGUCGCAGCCCCUGUCAGGUUCUGGUGAAUAUGCGAAUUCUGCUGUAUAUCUC [A47G C59A]: the self-cleavage is 0.29.
In the case of UAACAGGGGGCCACAGCAGGAGCGUUCACGUCGCAGCCCCGGUCAGAUUCUGGUGAAUCUGCGAAUUCUGCUGUAUAUCUC [A20G U41G] it was 0.35.
In the case of UAACAGGGGGCCUCAGCAGAAGCGUUCACGUCGCAGCCCCUGUCAGAUUCUGGUGAAUCUGCGAAUUCUGAUGUAUAUCUC [A13U C71A] it was 0.33.
As for UAACAGGGGGCCACAGCAGAAGCGUUCACGUCGCAGCCCCUGUCAGAUUCUGGUGAAUCUGCGAAUUCGGCUGUUUAUCUC [U69G A75U], the self-cleavage was 0.78.
In the case of UAACAGGGGGCCACAGCAGAAGCGUUCACGUCCCAGCCCCUGUCAGAUUCUGGUGAAUCUGCGAAUUCUGCUGUAUAUCCC [G33C U80C] it was 0.27.
In the case of UAAUAGGGGGCCACAGCAGAAGCGUUCACGCCGCAGCCCCUGUCAGAUUCUGGUGAAUCUGCGAAUUCUGCUGUAUAUCUC [C4U U31C] it was 1.11; in that of UAAGAGGGGGCCACAGCAGAAGCGUUCACGUCGCAGCCCCUGUCAGAUUCUGGUUAAUCUGCGAAUUCUGCUGUAUAUCUC [C4G G55U], 1.12.
In the case of UAACAGGGGGCCACAGCAGAAGCGCUCACGUCGCAGCCCCUGUCAGAUUCUGGUGAAUCAGCGAAUUCUGCUGUAUAUCUC [U25C U60A] it was 0.24.
On to UAACAUGGGGCCACAGCAGAAGUGUUCACGUCGCAGCCCCUGUCAGAUUCUGGUGAAUCUGCGAAUUCUGCUGUAUAUCUC [G6U C23U], for which the self-cleavage is 0.25.
UAACAGGGGGCCACAGCAGAAGCGUUCACGUCACAGCCCCUGUCAGAUUCUGGUGAAUCUGCGAAUUCUCCUGUAUAUCUC [G33A G70C]: the self-cleavage was 0.26.
In the case of UAAGAGGGGGCCACAGCAGAAGCGUUCACGUCGCAGCCCCUGUCAGAUACUGGUGAAUCUGCGAAUUCUGCUGUAUAUCUC [C4G U49A] it was 0.65.
In the case of UAACAGGGGGGCACAGCAGAAGCGUUCACGUCGCAGCCCCUGUCAGAUUCUGGUGAAUCUGCGAAUUCUGCCGUAUAUCUC [C11G U72C] it was 0.69.
Turning to UAACCGGGGACCACAGCAGAAGCGUUCACGUCGCAGCCCCUGUCAGAUUCUGGUGAAUCUGCGAAUUCUGCUGUAUAUCUC [A5C G10A], the self-cleavage was found to be 0.09.
In the case of UAACAGGGGGCCACAGCAGAAGCGUUCACGUCGCUGCCCCUGUCAGAUUCUGGGGAAUCUGCGAAUUCUGCUGUAUAUCUC [A35U U54G] it was 0.58.
In the case of UAACAGGGGGCCACAGCAGAGGCGUUCACGUCGCAGCCCCUGUCAGAUGCUGGUGAAUCUGCGAAUUCUGCUGUAUAUCUC [A21G U49G] it was 0.23.
